Laboratory results reported in patent publication US20120172293A1 (Takeda / Millennium, published 2012).
Starred links: 1 amine or outer side, 2 acyl side, 3 side chain; linkers in the order of their positions; H or OH if unused. Non-standard residues stand in square brackets, D forms with d. *: point of attachment. 1Nal = N[C@@H](Cc1cccc2ccccc12)C(=O)O; Lys(Me2) = CN(C)CCCC[C@H](N)C(=O)O; tBuAla = CC(C)(C)C[C@H](N)C(=O)O; 4Pal = N[C@@H](Cc1ccncc1)C(=O)O; Cha = N[C@@H](CC1CCCCC1)C(=O)O; Suc = O=C(CCC(=O)[*:2])[*:1]; dIva = CC[C@@](C)(N)C(=O)O; Isobutyryl = CC(C)C(=O)*; Iva = CC[C@](C)(N)C(=O)O; Nle = CCCC[C@H](N)C(=O)O; Dab = NCC[C@H](N)C(=O)O; Aib = CC(C)(N)C(=O)O; Bz = O=C(c1ccccc1)*; Ahx = NCCCCCC(=O)O; GABA = NCCCC(=O)O

Experiments:
[1] = target: human Y2 receptor (human) (UniProt P49146); assay: cell-based or functional assay
[2] = target: human Y2 receptor (human) (UniProt P49146); assay: RBA: [125I]-PYY displacement, hY2R/CHO membranes

human Y2 receptor (human), sequence (P49146 whole entry): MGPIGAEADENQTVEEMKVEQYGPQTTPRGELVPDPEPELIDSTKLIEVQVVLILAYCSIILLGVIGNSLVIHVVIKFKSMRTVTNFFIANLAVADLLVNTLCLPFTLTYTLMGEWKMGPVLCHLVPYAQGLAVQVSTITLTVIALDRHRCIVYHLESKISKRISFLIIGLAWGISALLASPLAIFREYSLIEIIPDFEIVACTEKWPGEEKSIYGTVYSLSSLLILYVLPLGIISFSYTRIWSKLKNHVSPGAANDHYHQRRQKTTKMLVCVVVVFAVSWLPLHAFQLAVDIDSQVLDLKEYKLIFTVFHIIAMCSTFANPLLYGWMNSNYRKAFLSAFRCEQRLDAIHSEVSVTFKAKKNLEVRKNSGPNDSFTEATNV

Binder | GBA EC50 Ratio (vs PYY(3-36)), [35S]GTPγS [1] | IC50 Ratio (vs PYY(3-36)) [2]
Ac-S[dP]RH[Cha][Cha]N[Dab][Aib]TRQR[Cha]-NH2 (SMILES CC(=O)N[C@@H](CO)C(=O)N1CCC[C@@H]1C(=O)N[C@@H](CCCNC(=N)N)C(=O)N[C@@H](Cc1c[nH]cn1)C(=O)N[C@@H](CC1CCCCC1)C(=O)N[C@@H](CC1CCCCC1)C(=O)N[C@@H](CC(N)=O)C(=O)N[C@@H](CCN)C(=O)NC(C)(C)C(=O)N[C@H](C(=O)N[C@@H](CCCNC(=N)N)C(=O)N[C@@H](CCC(N)=O)C(=O)N[C@@H](CCCNC(=N)N)C(=O)N[C@@H](CC1CCCCC1)C(N)=O)[C@@H](C)O) [Ac-[D-Pro24, Cha27,28,36, Dab30, Aib31]-PYY(23-36)] | 1.6 | 2.6
Ac-S[dP]RH[Cha][Cha]N[Lys(Me2)][Aib]TRQR[Cha]-NH2 (SMILES CC(=O)N[C@@H](CO)C(=O)N1CCC[C@@H]1C(=O)N[C@@H](CCCNC(=N)N)C(=O)N[C@@H](Cc1c[nH]cn1)C(=O)N[C@@H](CC1CCCCC1)C(=O)N[C@@H](CC1CCCCC1)C(=O)N[C@@H](CC(N)=O)C(=O)N[C@@H](CCCCN(C)C)C(=O)NC(C)(C)C(=O)N[C@H](C(=O)N[C@@H](CCCNC(=N)N)C(=O)N[C@@H](CCC(N)=O)C(=O)N[C@@H](CCCNC(=N)N)C(=O)N[C@@H](CC1CCCCC1)C(N)=O)[C@@H](C)O) [Ac-[D-Pro24, Cha27,28,36, Lys(Me2)30, Aib31]-PYY(23-36)] | 0.7 | 0.8
Ac-S[dP]RH[Cha][Cha][dIva]L[Aib]TRQR[Cha]-NH2 (SMILES CC[C@@](C)(NC(=O)[C@H](CC1CCCCC1)NC(=O)[C@H](CC1CCCCC1)NC(=O)[C@H](Cc1c[nH]cn1)NC(=O)[C@H](CCCNC(=N)N)NC(=O)[C@H]1CCCN1C(=O)[C@H](CO)NC(C)=O)C(=O)N[C@@H](CC(C)C)C(=O)NC(C)(C)C(=O)N[C@H](C(=O)N[C@@H](CCCNC(=N)N)C(=O)N[C@@H](CCC(N)=O)C(=O)N[C@@H](CCCNC(=N)N)C(=O)N[C@@H](CC1CCCCC1)C(N)=O)[C@@H](C)O) [Ac-[D-Pro24, Cha27,28,36, D-Iva29, Aib31]-PYY(23-36)] | 37 | 71
Suc-[Ahx]S[dP]RH[Cha][tBuAla]NK[Aib]TRQR[Cha]-NH2 (SMILES C[C@@H](O)[C@H](NC(=O)C(C)(C)NC(=O)[C@H](CCCCN)NC(=O)[C@H](CC(N)=O)NC(=O)[C@H](CC(C)(C)C)NC(=O)[C@H](CC1CCCCC1)NC(=O)[C@H](Cc1c[nH]cn1)NC(=O)[C@H](CCCNC(=N)N)NC(=O)[C@H]1CCCN1C(=O)[C@H](CO)NC(=O)CCCCCNC(=O)CCC(=O)O)C(=O)N[C@@H](CCCNC(=N)N)C(=O)N[C@@H](CCC(N)=O)C(=O)N[C@@H](CCCNC(=N)N)C(=O)N[C@@H](CC1CCCCC1)C(N)=O) [3-Carboxypropionyl-[Acp22, D-Pro24, Cha27,36, Leu(Me)28, Lys30, Aib31]-PYY(22-36)] | 1.2 | 1.7
Ac-[Ahx]E[dP]RH[Cha][Cha]NK[Aib]TRQR[Cha]-NH2 (SMILES CC(=O)NCCCCCC(=O)N[C@@H](CCC(=O)O)C(=O)N1CCC[C@@H]1C(=O)N[C@@H](CCCNC(=N)N)C(=O)N[C@@H](Cc1c[nH]cn1)C(=O)N[C@@H](CC1CCCCC1)C(=O)N[C@@H](CC1CCCCC1)C(=O)N[C@@H](CC(N)=O)C(=O)N[C@@H](CCCCN)C(=O)NC(C)(C)C(=O)N[C@H](C(=O)N[C@@H](CCCNC(=N)N)C(=O)N[C@@H](CCC(N)=O)C(=O)N[C@@H](CCCNC(=N)N)C(=O)N[C@@H](CC1CCCCC1)C(N)=O)[C@@H](C)O) [Ac-[Acp22, Glu23, D-Pro24, Cha27,28,36, Lys30, Aib31]-PYY(22-36)] | 1.1 | 1.7
Bz-RH[Cha][1Nal]NL[Aib]TRQR[Cha]-NH2 (SMILES CC(C)C[C@H](NC(=O)[C@H](CC(N)=O)NC(=O)[C@H](Cc1cccc2ccccc12)NC(=O)[C@H](CC1CCCCC1)NC(=O)[C@H](Cc1c[nH]cn1)NC(=O)[C@H](CCCNC(=N)N)NC(=O)c1ccccc1)C(=O)NC(C)(C)C(=O)N[C@H](C(=O)N[C@@H](CCCNC(=N)N)C(=O)N[C@@H](CCC(N)=O)C(=O)N[C@@H](CCCNC(=N)N)C(=O)N[C@@H](CC1CCCCC1)C(N)=O)[C@@H](C)O) [Benzoyl-[Cha27,36, Nal(1)28, Aib31]-PYY(25-36)] | 25 | 34

Now from value to binder:

GBA EC50 Ratio (vs PYY(3-36)), [35S]GTPγS [1] | IC50 Ratio (vs PYY(3-36)) [2] | Binder
3 | 5.8 | Ac-S[GABA]RH[Cha][Cha]NL[Aib]TRQR[Cha]-NH2 (SMILES CC(=O)N[C@@H](CO)C(=O)NCCCC(=O)N[C@@H](CCCNC(=N)N)C(=O)N[C@@H](Cc1c[nH]cn1)C(=O)N[C@@H](CC1CCCCC1)C(=O)N[C@@H](CC1CCCCC1)C(=O)N[C@@H](CC(N)=O)C(=O)N[C@@H](CC(C)C)C(=O)NC(C)(C)C(=O)N[C@H](C(=O)N[C@@H](CCCNC(=N)N)C(=O)N[C@@H](CCC(N)=O)C(=O)N[C@@H](CCCNC(=N)N)C(=O)N[C@@H](CC1CCCCC1)C(N)=O)[C@@H](C)O) [Ac-[GABA24, Cha27,28,36, Aib31]-PYY(23-36)]
0.86 | 0.48 | Ac-E[dP]R[4Pal][Cha][tBuAla]NK[Aib]TRQR[Cha]-NH2 (SMILES CC(=O)N[C@@H](CCC(=O)O)C(=O)N1CCC[C@@H]1C(=O)N[C@@H](CCCNC(=N)N)C(=O)N[C@@H](Cc1ccncc1)C(=O)N[C@@H](CC1CCCCC1)C(=O)N[C@@H](CC(C)(C)C)C(=O)N[C@@H](CC(N)=O)C(=O)N[C@@H](CCCCN)C(=O)NC(C)(C)C(=O)N[C@H](C(=O)N[C@@H](CCCNC(=N)N)C(=O)N[C@@H](CCC(N)=O)C(=O)N[C@@H](CCCNC(=N)N)C(=O)N[C@@H](CC1CCCCC1)C(N)=O)[C@@H](C)O) [Ac-[Glu23, D-Pro24, Pya(4)26, Cha27,36, Leu(Me)28, Lys30, Aib31]-PYY(23-36)]
0.88 | 0.43 | Isobutyryl-E[dP]R[4Pal][Cha][tBuAla]NK[Aib]TRQR[Cha]-NH2 (SMILES CC(C)C(=O)N[C@@H](CCC(=O)O)C(=O)N1CCC[C@@H]1C(=O)N[C@@H](CCCNC(=N)N)C(=O)N[C@@H](Cc1ccncc1)C(=O)N[C@@H](CC1CCCCC1)C(=O)N[C@@H](CC(C)(C)C)C(=O)N[C@@H](CC(N)=O)C(=O)N[C@@H](CCCCN)C(=O)NC(C)(C)C(=O)N[C@H](C(=O)N[C@@H](CCCNC(=N)N)C(=O)N[C@@H](CCC(N)=O)C(=O)N[C@@H](CCCNC(=N)N)C(=O)N[C@@H](CC1CCCCC1)C(N)=O)[C@@H](C)O) [Isobutanoyl-[Glu23, D-Pro24, Pya(4)26, Cha27,36, Leu(Me)28, Lys30, Aib31]-PYY(23-36)]
1.3 | 2.3 | Ac-E[dP][Nle][4Pal][Cha][Cha]NK[Aib]TRQR[Cha]-NH2 (SMILES CCCC[C@H](NC(=O)[C@H]1CCCN1C(=O)[C@H](CCC(=O)O)NC(C)=O)C(=O)N[C@@H](Cc1ccncc1)C(=O)N[C@@H](CC1CCCCC1)C(=O)N[C@@H](CC1CCCCC1)C(=O)N[C@@H](CC(N)=O)C(=O)N[C@@H](CCCCN)C(=O)NC(C)(C)C(=O)N[C@H](C(=O)N[C@@H](CCCNC(=N)N)C(=O)N[C@@H](CCC(N)=O)C(=O)N[C@@H](CCCNC(=N)N)C(=O)N[C@@H](CC1CCCCC1)C(N)=O)[C@@H](C)O) [Ac-[Glu23, D-Pro24, Nle25, Pya(4)26, Cha27,28,36, Lys30, Aib31]-PYY(23-36)]
4.2 | 5.2 | Ac-S[dP]R[Iva][Cha][Cha]NL[Aib]TRQR[Cha]-NH2 (SMILES CC[C@](C)(NC(=O)[C@H](CCCNC(=N)N)NC(=O)[C@H]1CCCN1C(=O)[C@H](CO)NC(C)=O)C(=O)N[C@@H](CC1CCCCC1)C(=O)N[C@@H](CC1CCCCC1)C(=O)N[C@@H](CC(N)=O)C(=O)N[C@@H](CC(C)C)C(=O)NC(C)(C)C(=O)N[C@H](C(=O)N[C@@H](CCCNC(=N)N)C(=O)N[C@@H](CCC(N)=O)C(=O)N[C@@H](CCCNC(=N)N)C(=O)N[C@@H](CC1CCCCC1)C(N)=O)[C@@H](C)O) [Ac-[D-Pro24, Iva26, Cha27,28,36, Aib31]-PYY(23-36)]
3.7 | 4.5 | Ac-S[dP][Iva]H[Cha][Cha]NL[Aib]TRQR[Cha]-NH2 (SMILES CC[C@](C)(NC(=O)[C@H]1CCCN1C(=O)[C@H](CO)NC(C)=O)C(=O)N[C@@H](Cc1c[nH]cn1)C(=O)N[C@@H](CC1CCCCC1)C(=O)N[C@@H](CC1CCCCC1)C(=O)N[C@@H](CC(N)=O)C(=O)N[C@@H](CC(C)C)C(=O)NC(C)(C)C(=O)N[C@H](C(=O)N[C@@H](CCCNC(=N)N)C(=O)N[C@@H](CCC(N)=O)C(=O)N[C@@H](CCCNC(=N)N)C(=O)N[C@@H](CC1CCCCC1)C(N)=O)[C@@H](C)O) [Ac-[D-Pro24, Iva25, Cha27,28,36, Aib31]-PYY(23-36)]
13 | 19 | Ac-S[dP]R[dIva][Cha][Cha]NL[Aib]TRQR[Cha]-NH2 (SMILES CC[C@@](C)(NC(=O)[C@H](CCCNC(=N)N)NC(=O)[C@H]1CCCN1C(=O)[C@H](CO)NC(C)=O)C(=O)N[C@@H](CC1CCCCC1)C(=O)N[C@@H](CC1CCCCC1)C(=O)N[C@@H](CC(N)=O)C(=O)N[C@@H](CC(C)C)C(=O)NC(C)(C)C(=O)N[C@H](C(=O)N[C@@H](CCCNC(=N)N)C(=O)N[C@@H](CCC(N)=O)C(=O)N[C@@H](CCCNC(=N)N)C(=O)N[C@@H](CC1CCCCC1)C(N)=O)[C@@H](C)O) [Ac-[D-Pro24, D-Iva26, Cha27,28,36, Aib31]-PYY(23-36)]
11 | 14 | Ac-S[dP][dIva]H[Cha][Cha]NL[Aib]TRQR[Cha]-NH2 (SMILES CC[C@@](C)(NC(=O)[C@H]1CCCN1C(=O)[C@H](CO)NC(C)=O)C(=O)N[C@@H](Cc1c[nH]cn1)C(=O)N[C@@H](CC1CCCCC1)C(=O)N[C@@H](CC1CCCCC1)C(=O)N[C@@H](CC(N)=O)C(=O)N[C@@H](CC(C)C)C(=O)NC(C)(C)C(=O)N[C@H](C(=O)N[C@@H](CCCNC(=N)N)C(=O)N[C@@H](CCC(N)=O)C(=O)N[C@@H](CCCNC(=N)N)C(=O)N[C@@H](CC1CCCCC1)C(N)=O)[C@@H](C)O) [Ac-[D-Pro24, D-Iva25, Cha27,28,36, Aib31]-PYY(23-36)]
2.4 | 3.3 | Piperidinocarbonyl-E[dP]R[4Pal][Cha][Aib]NK[Aib]TRQR[Cha]-NH2 [Piperidinocarbonyl-[Glu23, D-Pro24, Pya(4)26, Cha27,36, Aib28,31, Lys30]-PYY(23-36)]
